Assay results taken from IntAct's records for PubMed 29691401.

B1: "Lethal(3)malignant brain tumor-like protein 3" (Homo sapiens), Q96JM7 (parent)
chain: MTESASSTSGQEFDVFSVMDWKDGVGTLPGSDLKFRVNEFGALEVITDENEMENVKKATATTTWMVPTAQEAPTSPPSSRPVFPPAYWTSPPGCPTVFSEKTGMPFRLKDPVKVEGLQFCENCCQYGNVDECLSGGNYCSQNCARHIKDKDQKEERDVEEDNEEEDPKCSRKKKPKLSLKADTKEDGEERDDEMENKQDVRILRGSQRARRKRRGDSAVLKQGLPPKGKKAWCWASYLEEEKAVAVPAKLFKEHQSFPYNKNGFKVGMKLEGVDPEHQSVYCVLTVAEVCGYRIKLHFDGYSDCYDFWVNADALDIHPVGWCEKTGHKLHPPKGYKEEEFNWQTYLKTCKAQAAPKSLFENQNITVIPSGFRVGMKLEAVDKKNPSFICVATVTDMVDNRFLVHFDNWDESYDYWCEASSPHIHPVGWCKEHRRTLITPPGYPNVKHFSWDKYLEETNSLPAPARAFKVKPPHGFQKKMKLEVVDKRNPMFIRVATVADTDDHRVKVHFDGWNNCYDYWIDADSPDIHPVGWCSKTGHPLQPPLSPLELMEASEHGGCSTPGCKGIGHFKRARHLGPHSAANCPYSEINLNKDRIFPDRLSGEMPPASPSFPRNKRTDANESSSSPEIRDQHADDVKEDFEERTESEMRTSHEARGAREEPTVQQAQRRSAVFLSFKSPIPCLPLRWEQQSKLLPTVAGIPASKVSKWSTDEVSEFIQSLPGCEEHGKVFKDEQIDGEAFLLMTQTDIVKIMSIKLGPALKIFNSILMFKAAEKNSHNEL

Variants of: B1
Conditions: with dnmt1_human DNMT1, P26358
Sequence of dnmt1_human DNMT1, P26358 (P26358 whole entry): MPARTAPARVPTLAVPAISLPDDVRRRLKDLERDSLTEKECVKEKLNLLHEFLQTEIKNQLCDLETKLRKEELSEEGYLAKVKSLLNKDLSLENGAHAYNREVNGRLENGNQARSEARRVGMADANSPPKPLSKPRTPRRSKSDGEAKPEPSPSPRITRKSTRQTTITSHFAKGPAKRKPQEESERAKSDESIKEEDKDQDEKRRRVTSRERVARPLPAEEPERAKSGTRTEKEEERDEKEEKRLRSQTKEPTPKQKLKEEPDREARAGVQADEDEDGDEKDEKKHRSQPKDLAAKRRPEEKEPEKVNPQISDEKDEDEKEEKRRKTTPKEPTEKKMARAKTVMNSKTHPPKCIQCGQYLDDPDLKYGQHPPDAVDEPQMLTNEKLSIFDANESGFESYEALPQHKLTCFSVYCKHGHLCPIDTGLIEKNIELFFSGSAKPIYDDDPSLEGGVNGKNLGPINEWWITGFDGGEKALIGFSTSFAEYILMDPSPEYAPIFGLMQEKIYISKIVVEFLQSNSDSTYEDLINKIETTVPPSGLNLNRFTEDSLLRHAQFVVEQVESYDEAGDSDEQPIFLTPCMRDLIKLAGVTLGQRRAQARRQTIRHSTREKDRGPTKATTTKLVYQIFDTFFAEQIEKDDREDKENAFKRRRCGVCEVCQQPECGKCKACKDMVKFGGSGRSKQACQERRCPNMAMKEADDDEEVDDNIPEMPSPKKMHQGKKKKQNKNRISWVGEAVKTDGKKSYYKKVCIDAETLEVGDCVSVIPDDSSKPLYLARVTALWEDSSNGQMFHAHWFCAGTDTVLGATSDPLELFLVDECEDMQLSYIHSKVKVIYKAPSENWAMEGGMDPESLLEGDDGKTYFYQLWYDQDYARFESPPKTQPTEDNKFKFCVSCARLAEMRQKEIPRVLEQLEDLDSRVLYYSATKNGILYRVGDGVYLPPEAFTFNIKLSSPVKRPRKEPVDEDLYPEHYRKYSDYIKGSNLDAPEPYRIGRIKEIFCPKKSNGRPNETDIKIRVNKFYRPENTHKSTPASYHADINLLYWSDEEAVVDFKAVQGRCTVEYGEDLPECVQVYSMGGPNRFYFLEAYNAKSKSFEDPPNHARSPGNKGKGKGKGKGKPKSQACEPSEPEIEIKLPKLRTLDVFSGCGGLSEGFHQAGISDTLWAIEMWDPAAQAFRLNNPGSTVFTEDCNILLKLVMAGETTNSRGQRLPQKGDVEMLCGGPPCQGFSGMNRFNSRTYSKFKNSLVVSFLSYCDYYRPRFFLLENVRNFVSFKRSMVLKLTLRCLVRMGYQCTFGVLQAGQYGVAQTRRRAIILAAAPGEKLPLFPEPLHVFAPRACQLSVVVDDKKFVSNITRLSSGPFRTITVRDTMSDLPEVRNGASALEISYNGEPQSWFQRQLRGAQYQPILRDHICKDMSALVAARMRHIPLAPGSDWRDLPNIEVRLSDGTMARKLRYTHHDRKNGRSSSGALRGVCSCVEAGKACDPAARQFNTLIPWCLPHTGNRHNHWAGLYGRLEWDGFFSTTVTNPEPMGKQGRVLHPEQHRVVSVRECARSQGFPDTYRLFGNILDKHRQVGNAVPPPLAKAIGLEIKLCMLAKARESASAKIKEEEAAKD

**Q.** D381N was tested. Which “effect of a mutation on the interaction” value did it give?
**A.** disrupting interaction strength

Variants of: B1
Conditions: with dnmt1_human DNMT1, P26358
Remark: another data set of the same source

**Q.** D381N was tested. Which “effect of a mutation on the interaction” value did it give?
**A.** decreasing interaction strength
